Patent US20160115500A1 (University of California, published 2016)
Substitutions are numbered along the chain they refer to. Numbers in names are those of the source. One block for each binder: values may come before it.

Columns and labels:
[1] = molecular target: T1, GAL4 activation domain fusion (ACT) to HAB1 (UniProt Q9CAJ0 23-511, limits assumed); assay: yeast two-hybrid, X-gal; lowest benoxacor concentration giving signal
T1 construct: pACT-HAB1 fusion in yeast reporter strains; also called pACT-HAB1
T1 sequence (looked up): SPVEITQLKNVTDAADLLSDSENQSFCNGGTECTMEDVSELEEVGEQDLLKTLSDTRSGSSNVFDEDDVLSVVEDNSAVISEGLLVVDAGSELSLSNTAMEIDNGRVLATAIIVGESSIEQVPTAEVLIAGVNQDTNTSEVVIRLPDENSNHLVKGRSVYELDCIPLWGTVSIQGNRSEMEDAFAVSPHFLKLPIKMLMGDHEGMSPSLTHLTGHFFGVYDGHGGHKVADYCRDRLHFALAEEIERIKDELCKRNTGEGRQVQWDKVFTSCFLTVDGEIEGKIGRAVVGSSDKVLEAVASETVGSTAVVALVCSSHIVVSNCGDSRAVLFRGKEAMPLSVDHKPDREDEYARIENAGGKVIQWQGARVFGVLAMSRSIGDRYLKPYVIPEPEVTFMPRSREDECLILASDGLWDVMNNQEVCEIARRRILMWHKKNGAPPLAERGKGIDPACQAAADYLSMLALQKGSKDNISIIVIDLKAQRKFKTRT
Procedure: The set of 475 mutant plasmids were individually transformed into the Y190 yeast two hybrid reporter strain co-transformed with pACT-HAB1, as previously described (Park et al., 2009). The yeast strains generated were arrayed into 96-well plates yielding what we refer to as the “pocket library”. The pocket library strains were spotted onto agar plates containing selective synthetic dextrose (minus Leu & Trp) medium that was supplemented with a single test compound at 100 μM. The pocket library strains were separately tested for responsiveness to the following compounds: dichlobenil, benzothiadiazole, mandipropamid, fludioxonil, and benoxacor. After incubating test plates at 30° C. for two days, colonies were chloroform lysed and stained to reveal β-galactosidase expression levels, using previously described methods (Park et al., 2009). Mutants displaying responsiveness to the test compound, if present, were identified by virtue of X-gal staining and then subjected to subsequent optimization efforts. Using this approach we identified mutations that conferred detectable sensitivity to the compounds tested (see entries labeled “Pocket Library Screens” in Table 1).

[2] = molecular target: T1, GAL4 activation domain fusion (ACT) to …; assay: yeast two-hybrid, X-gal; lowest benzothiadiazole concentration giving signal
[3] = molecular target: T1, GAL4 activation domain fusion (ACT) to …; assay: yeast two-hybrid, X-gal; lowest dichlobenil concentration giving signal
[4] = molecular target: T1, GAL4 activation domain fusion (ACT) to …; assay: yeast two-hybrid, X-gal; lowest mandipropamid concentration giving signal
[5] = molecular target: T1, GAL4 activation domain fusion (ACT) to …; assay: yeast two-hybrid, X-gal; lowest fludioxonil concentration giving signal

Threshold [1]: 100 µM
B1: PYR1^K59R,A89I (receptor)
chain: MPSELTPEERSELKNSIAEFHTYQLDPGSCSSLHAQRIHAPPELVWSIVRRFDKPQTYRHFIKSCSVEQNFEMRVGCTRDVIVISGLPINTSTERLDILDDERRVTGFSIIGGEHRLTNYKSVTTVHRFEKENRIWTVVLESYVVDMPEGNSEDDTRMFADTVVKLNLQKLATVAEAMARNSGDGSGSQVT
notes: pBD-PYR1 fusion in yeast

Threshold [2]: 100 µM
Threshold [3]: 100 µM
Threshold [4]: 100 µM
B2: PYR1^K59R,F159L (receptor, not shown: small tags and cut ends)
chain: B1 chain with I89A, F159L
notes: pBD-PYR1 fusion in yeast

Threshold [5]: 100 µM
Threshold [2]: 100 µM
Threshold [1]: 100 µM
Threshold [3]: 100 µM
B3: PYR1^K59R,M158C (receptor, not shown: small tags and cut ends)
chain: B1 chain with I89A, M158C
notes: pBD-PYR1 fusion in yeast

Threshold [2]: 100 µM
B4: PYR1^K59R,L117C,V164K (receptor)
chain: B1 chain with I89A, L117C, V164K
notes: pBD-PYR1 fusion in yeast

Threshold [2]: 100 µM
Threshold [4]: 100 µM
B5: PYR1^K59R,F159M (receptor, not shown: small tags and cut ends)
chain: B1 chain with I89A, F159M
notes: pBD-PYR1 fusion in yeast

Threshold [5]: 100 µM
Threshold [2]: 100 µM
Threshold [4]: 100 µM
B6: PYR1^K59R,F159T (receptor, not shown: small tags and cut ends)
chain: B1 chain with I89A, F159T
notes: pBD-PYR1 fusion in yeast

Threshold [2]: 100 µM
Threshold [3]: 100 µM
B7: PYR1^K59R,T162K (receptor, not shown: small tags and cut ends)
chain: B1 chain with I89A, T162K
notes: pBD-PYR1 fusion in yeast

Threshold [5]: 100 µM
Threshold [2]: 100 µM
Threshold [1]: 50 µM
Threshold [3]: 100 µM
B8: PYR1^K59R,T162W (receptor, not shown: small tags and cut ends)
chain: B1 chain with I89A, T162W
notes: pBD-PYR1 fusion in yeast

Threshold [5]: 100 µM
Threshold [2]: 100 µM
Threshold [1]: 100 µM
Threshold [3]: 100 µM
B9: PYR1^K59R,M158T (receptor, not shown: small tags and cut ends)
chain: B1 chain with I89A, M158T
notes: pBD-PYR1 fusion in yeast

Threshold [1]: 50 µM
B10: PYR1^K59R,A89I,S92I (receptor)
chain: B1 chain with S92I
notes: pBD-PYR1 fusion in yeast

Threshold [5]: 100 µM
Threshold [2]: 100 µM
Threshold [4]: 100 µM
B11: PYR1^K59R,F159A (receptor, not shown: small tags and cut ends)
chain: B1 chain with I89A, F159A
notes: pBD-PYR1 fusion in yeast

Threshold [5]: 100 µM
Threshold [2]: 100 µM
Threshold [3]: 100 µM
B12: PYR1^K59R,M158I (receptor, not shown: small tags and cut ends)
chain: B1 chain with I89A, M158I
notes: pBD-PYR1 fusion in yeast

Threshold [5]: 100 µM
Threshold [2]: 100 µM
B13: PYR1^K59R,V81I (receptor, not shown: small tags and cut ends)
chain: B1 chain with V81I, I89A
notes: pBD-PYR1 fusion in yeast

Threshold [1]: 100 µM
Threshold [4]: 100 µM
B14: PYR1^K59R,A89W (receptor)
chain: B1 chain with I89W
notes: pBD-PYR1 fusion in yeast

Threshold [5]: 100 µM
Threshold [1]: 100 µM
B15: PYR1^K59R,L87F (receptor)
chain: B1 chain with L87F, I89A
notes: pBD-PYR1 fusion in yeast

Threshold [2]: 100 µM
Threshold [3]: 100 µM
B16: PYR1^K59R,T162Y (receptor, not shown: small tags and cut ends)
chain: B1 chain with I89A, T162Y
notes: pBD-PYR1 fusion in yeast

Threshold [5]: 100 µM
Threshold [2]: 100 µM
Threshold [3]: 100 µM
B17: PYR1^K59R,E141Y (receptor)
chain: B1 chain with I89A, E141Y
notes: pBD-PYR1 fusion in yeast

Threshold [2]: 100 µM
Threshold [4]: 100 µM
B18: PYR1^K59R,F159C (receptor, not shown: small tags and cut ends)
chain: B1 chain with I89A, F159C
notes: pBD-PYR1 fusion in yeast

Threshold [5]: 100 µM
Threshold [2]: 100 µM
Threshold [1]: 100 µM
Threshold [3]: 100 µM
Threshold [4]: 100 µM
B19: PYR1^K59R,F159V (receptor, not shown: small tags and cut ends)
chain: B1 chain with I89A, F159V
notes: pBD-PYR1 fusion in yeast

Threshold [1]: 50 µM
B20: PYR1^K59R,S92I (receptor)
chain: B1 chain with I89A, S92I
notes: pBD-PYR1 fusion in yeast

Threshold [2]: 100 µM
Threshold [3]: 100 µM
Threshold [4]: 100 µM
B21: PYR1^K59R,F159I (receptor, not shown: small tags and cut ends)
chain: B1 chain with I89A, F159I
notes: pBD-PYR1 fusion in yeast; also called K59R F1591

Threshold [2]: 100 µM
Threshold [3]: 100 µM
B22: PYR1^K59R,V164Y (receptor, not shown: small tags and cut ends)
chain: B1 chain with I89A, V164Y
notes: pBD-PYR1 fusion in yeast

Threshold [1]: 50 µM
B23: PYR1^K59R,S92W (receptor)
chain: B1 chain with I89A, S92W
notes: pBD-PYR1 fusion in yeast

Threshold [5]: 100 µM
Threshold [2]: 100 µM
Threshold [3]: 100 µM
B24: PYR1^K59R,V164K (receptor, not shown: small tags and cut ends)
chain: B1 chain with I89A, V164K
notes: pBD-PYR1 fusion in yeast

Threshold [1]: 50 µM
B25: PYR1^K59R,A89I,S92W (receptor)
chain: B1 chain with S92W
notes: pBD-PYR1 fusion in yeast

Threshold [5]: 100 µM
Threshold [2]: 100 µM
Threshold [3]: 100 µM
B26: PYR1^K59R,V83L (receptor, not shown: small tags and cut ends)
chain: B1 chain with V83L, I89A
notes: pBD-PYR1 fusion in yeast

Threshold [5]: 100 µM
Threshold [2]: 100 µM
Threshold [1]: 100 µM
Threshold [3]: 100 µM
B27: PYR1^K59R,M158V (receptor, not shown: small tags and cut ends)
chain: B1 chain with I89A, M158V
notes: pBD-PYR1 fusion in yeast
